# ± gives the standard deviation of the averaged measurements.
# B1: library; a variant is named by its letters at N, in order (parent)
# chain: GCUGUCACCGAGAAACUGUGAAGUAUAUCUUAAACCUGGGCACUUAAAAGAUAUAUGGAGUUAGUAGUGCAACCUGCUCGGUCUGAUGAGUCCNNNNNNGGACGAAACAGC
# How the values were obtained:
# [1] = variants of: B1; assay: normalized RNA/DNA level without ligand (relative to sTRSVctl = 100) (log10 (% of sTRSVctl)); HEK293T; ligand: cyclic di-GMP (c-di-GMP-II aptamer); higher = less ribozyme self-cleavage, higher mRNA level; conditions: reporter: mCherry (pCS4076), ligand present: no
# Procedure, shortened: (§1)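 Total RNA, extracted with EDTA 72 h after HEK293T cells were transfected with 4 µg per 6-well well of reporter-linked ribozyme switch library plasmids, was reverse-transcribed, amplified, barcoded and sequenced. Ligand, if used, was added 1 h before transfection. RNA level was derived from RNA reads divided by DNA reads and normalized to a spiked-in non-cleaving sequence or to the top sequences. This was multiplied by 100 and log10-transformed, with the top set of 25 sequences and a ≥100 DNA read minimum.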
# [2] = variants of: B1; assay: normalized RNA/DNA level with ligand (relative to sTRSVctl = 100) (log10 (% of sTRSVctl)); HEK293T; ligand: cyclic di-GMP (c-di-GMP-II aptamer); ligand concentration (+) RNA-Seq: 1 mM; higher = less ribozyme self-cleavage, higher mRNA level; conditions: reporter: mCherry (pCS4076), ligand present: yes
# Procedure, shortened: as §1
Variant,normalized RNA/DNA level without ligand (log10) [1],normalized RNA/DNA level with ligand (log10) [2]
UUUUCC,1.84 ± 0.058,1.89 ± 0.16
UUUUCU,1.78 ± 0.071,1.9 ± 0.12
UUUUCA,1.8 ± 0.025,1.91 ± 0.12
GUUGUG,1.66 ± 0.09,1.82 ± 0.079
GUUGUU,1.67 ± 0.038,1.81 ± 0.098
CUUUUG,1.796 ± 0.016,1.92 ± 0.13
CUUUUU,1.611 ± 0.013,1.79 ± 0.11
CUUUUA,1.42 ± 0.12,1.66 ± 0.07
CUUUUC,1.73 ± 0.022,1.85 ± 0.12
GUUUCU,1.711 ± 0.014,1.86 ± 0.097
GUUUCG,1.71 ± 0.051,1.85 ± 0.099
GUUUCA,1.648 ± 0.0058,1.79 ± 0.12
GUUUCC,1.82 ± 0.07,1.88 ± 0.15
CUUUAG,1.73 ± 0.095,1.84 ± 0.19
CUUUAC,1.73 ± 0.019,1.84 ± 0.1
CUUUAU,1.58 ± 0.047,1.79 ± 0.11
AUUGUG,1.605 ± 0.014,1.84 ± 0.11
AUUGUU,1.59 ± 0.025,1.77 ± 0.12
UUUUGG,1.82 ± 0.05,1.93 ± 0.13
UUUUGA,1.74 ± 0.062,1.89 ± 0.2

Variant,normalized RNA/DNA level without ligand (log10) [1],normalized RNA/DNA level with ligand (log10) [2]
UUUUGU,1.74 ± 0.035,1.87 ± 0.15
UUUUGC,1.76 ± 0.045,1.85 ± 0.11
AUUUUG,1.68 ± 0.045,1.81 ± 0.056
AUUUUA,1.62 ± 0.032,1.8 ± 0.13
AUUUUU,1.76 ± 0.03,1.89 ± 0.075
AUUUUC,1.74 ± 0.024,1.85 ± 0.092
GUUUAG,1.59 ± 0.041,1.78 ± 0.091
GUUUAC,1.74 ± 0.029,1.84 ± 0.13
GUUUAA,1.54 ± 0.058,1.74 ± 0.086
CUUUGC,1.795 ± 0.017,1.88 ± 0.11
CUUUGG,1.781 ± 0.0073,1.87 ± 0.089
CUUUGU,1.78 ± 0.029,1.87 ± 0.049
CUUUGA,1.66 ± 0.019,1.79 ± 0.11
CUUGUG,1.73 ± 0.03,1.91 ± 0.13
CUUGUU,1.72 ± 0.07,1.85 ± 0.12
GUUUGU,1.69 ± 0.022,1.84 ± 0.067
UUUUAC,1.74 ± 0.055,1.87 ± 0.14
UUUUAA,1.725 ± 0.014,1.86 ± 0.11
UUUUAG,1.74 ± 0.022,1.89 ± 0.065
UUUUAU,1.7 ± 0.025,1.87 ± 0.095

Variant,normalized RNA/DNA level without ligand (log10) [1],normalized RNA/DNA level with ligand (log10) [2]
AUUUCC,1.79 ± 0.019,1.9 ± 0.092
AUUUCU,1.74 ± 0.06,1.87 ± 0.12
AUUUCG,1.66 ± 0.028,1.82 ± 0.09
AUUUCA,1.701 ± 0.013,1.85 ± 0.12
AUUUGC,1.76 ± 0.038,1.87 ± 0.12
AUUUGU,1.66 ± 0.017,1.85 ± 0.12
AUUUGG,1.56 ± 0.032,1.77 ± 0.088
AUUUGA,1.51 ± 0.052,1.75 ± 0.16
UUUGUG,1.72 ± 0.042,1.91 ± 0.05
CUUUCG,1.8 ± 0.046,1.88 ± 0.05
AUUUAG,1.63 ± 0.065,1.77 ± 0.077
AUUUAC,1.733 ± 0.0013,1.88 ± 0.1
AUUUAU,1.74 ± 0.037,1.84 ± 0.073
UUUUUU,1.77 ± 0.056,1.88 ± 0.097
UUUUUC,1.78 ± 0.052,1.88 ± 0.14
UUUUUA,1.77 ± 0.038,1.92 ± 0.11
UUUUUG,1.77 ± 0.028,1.87 ± 0.088
GUUUUA,1.63 ± 0.032,1.82 ± 0.098
GUUUUC,1.69 ± 0.025,1.86 ± 0.09

# From the supplement of paper PMC6757056
